Results: patent publication US20220348635A1, “COMPOSITIONS AND METHODS FOR NEUROLOGICAL DISEASES” (Coda Biotherapeutics, Inc., priority 2019, published 2022)

How the values were obtained:
Assay type in all cases: cell-based
[1] = Evoked action potentials in transduced rat DRG neurons, acetylcholine; settings: Acetylcholine at 3.0 mM, n=4
Procedure: Acetylcholine at 3.0 mM had no effect on evoked action potentials in transduced neurons (n=4) (FIG. 4B).

[2] = Rheobase shift in rat DRG neurons, TC-5619
Procedure: (§1) Using whole cell manual patch clamp electrophysiology in HEK293 cells and rat DRG neurons, the EC50 of the various engineered receptors disclosed herein to Ach and non-native ligands was measured. The rheobase shift was also measured in rat DRG neurons, which reflects the efficacy of the receptors. To calculate the rheobase, first, the amount of current that can produce an action potential was determined. Then the ligand was added, followed by a step wise increase in the current injected up to 700 pA. The current injected after addition of the ligand was divided by, the original current injected to obtain an action potential, to calculate the rheobase. The EC50 was calculated using the Hill equation with peak current measurements from escalating doses of ligand.

[3] = YFP quench plate reader assay, response to TC-5619; settings: LX293T YFP reporter cells
Method in brief: (§2)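 Anion-flux assay: channel opening admits iodide, quenching a co-expressed YFP reporter in LX293T cells transfected with engineered receptor mutants. Ligands were applied at several doses from 2× solutions in NaI-substituted ECS.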

[4] = YFP quench plate reader assay, response to TC-6987; settings: LX293T YFP reporter cells
Method in brief: as §2

[5] = YFP quench plate reader assay, response to RG3487; settings: LX293T YFP reporter cells
Method in brief: as §2

[6] = Manual patch clamp, HEK cell line, acetylcholine; settings: HEK293 cells and cultured rat DRG sensory neurons
Procedure: FIG. 2A-FIG. 2B show the concentration-response curves of CR-11 (Chemogenic receptor-11, an engineered receptor comprising an amino acid sequence having the amino acid substitutions of Y115D and L131Q in SEQ ID NO: 33) expressed in HEK 293 cells to acetylcholine as well as to non-native ligands RG-3487 (SA-2, Synthetic Agonist-2). The responses were evaluated using manual patch clamp electrophysiology. Currents were normalized to unity for the maximal response. The continuous line through the data points is the best fit obtained with the Hill equation, and EC50s for each ligand are estimated from the concentration-response curves.
as §1, with “The current injected after addition of the ligand was divided by, the original current injected to obtain an action potential, to calculate the rheobase.” left out

[7] = YFP quench plate reader assay, response to ABT-126; settings: LX293T YFP reporter cells
Method in brief: as §2

B1: Y115D, L131Q in SEQ ID NO: 33: CR-11 (Chemogenic receptor-11): SEQ ID NO: 33 with substitutions Y115D and L131Q (protein)
chain: MRCSPGGVWLALAASLLHVSLQGEFQRKLYKELVKNYNPLERPVANDSQPLTVYFSLSLLQIMDVDEKNQVLTTNIWLQMSWTDHYLQWNVSEYPGVKTVRFPDGQIWKPDILLDNSADERFDATFHTNVQVNSSGHCQYLPPGIFKSSCPMDLKNFPMDVQTCKLKFGSWSYGGWSLDLQMQEADISGYIPNGEWDLVGIPGKRSERFYECCKEPYPDVTFTVTMRRRMGYYLIQMYIPSLLIVILSWISFWINMDAAPARVGLGITTVLTMTTQSSGSRASLPKVSYVKAIDIWMAVCLLFVFSALLEYAAVNFVSRQHKELLRFRRKRRHHKSPMLNLFQEDEAGEGRFNFSAYGMGPACLQAKDGISVKGANNSNTTNPPPAPSKSPEEMRKLFIQRAKKIDKISRIGFPMAFLIFNMFYWIIYKIVRREDVHNQ
modifications: synthetic sequence of chimeric LGIC
[1]
  effect on evoked action potentials: no effect
[2]; TC5619 @ EC90
  Rheobase Shift; Rat DRG Neurons, +TC-5619: 625 ± 35 pA
[2]; receptor-expressing rat DRG neurons, before ligand
  Rheobase Shift; Rat DRG Neurons, Baseline: 163 ± 28 pA
[3]; 1 nM TC-5619
  percent quench of YFP fluorescence, 1 nM brd: 0.92%
[3]; 3 nM TC-5619
  percent quench of YFP fluorescence, 3 nM brd: −4.65%
[3]; 10 nM TC-5619
  percent quench of YFP fluorescence, 10 nM brd: 0.38%
[3]; 30 nM TC-5619
  percent quench of YFP fluorescence, 30 nM brd: 8.96%
[3]; 100 nM TC-5619
  percent quench of YFP fluorescence, 100 nM brd: 12.18%
[3]; 300 nM TC-5619
  percent quench of YFP fluorescence, 300 nM brd: −0.3%
[3]; 1 uM TC-5619
  percent quench of YFP fluorescence, 1 uM brd: 45.47%
[4]; 1 uM TC-6987
  percent quench of YFP fluorescence, 1 uM tc6: 38.83%
[4]; 10 uM TC-6987
  percent quench of YFP fluorescence, 10 uM tc6: 31.59%
[4]; 500 uM TC-6987
  percent quench of YFP fluorescence, 500 uM tc6: 29.83%
[5]; 30 nM RG3487
  percent quench of YFP fluorescence, 30 nM fac: 41.32%
[5]; 100 nM RG3487
  percent quench of YFP fluorescence, 100 nM fac: 59.51%
[5]; 300 nM RG3487
  percent quench of YFP fluorescence, 300 nM fac: 74.86%
[5]; 10 uM RG3487
  percent quench of YFP fluorescence, 10 uM fac: 78.53%
[5]; 30 uM RG3487
  percent quench of YFP fluorescence, 30 uM fac: 84.45%
[6]
  sensitivity / potency to acetylcholine: essentially insensitive
[7]; 50 nM ABT-126
  percent quench of YFP fluorescence, 50 nM abt: −1.81%
[7]; 100 nM ABT-126
  percent quench of YFP fluorescence, 100 nM abt: −2.61%
[7]; 300 nM ABT-126
  percent quench of YFP fluorescence, 300 nM abt: −3.78%
[7]; 1 uM ABT-126
  percent quench of YFP fluorescence, 1 uM abt: −2.6%
